Data: the supplement of paper PMC10065799, “High-throughput profiling of sequence recognition by tyrosine kinases and SH2 domains using bacterial peptide display” (eLife, 2023)

What was measured:
[1] = biological target: Fyn (UniProt P06241); assay: phosphorylation enrichment, bacterial display (enrichment ratio); higher = better substrate or ligand; peptides without Tyr show the background
[2] = tested on: AncSZ; assay: as above
[3] = biological target: EPHB1 (UniProt P54762); assay: as above
[4] = biological target: Jak2 (UniProt O60674); assay: as above
Sequence of Jak2 (O60674 whole entry, looked up): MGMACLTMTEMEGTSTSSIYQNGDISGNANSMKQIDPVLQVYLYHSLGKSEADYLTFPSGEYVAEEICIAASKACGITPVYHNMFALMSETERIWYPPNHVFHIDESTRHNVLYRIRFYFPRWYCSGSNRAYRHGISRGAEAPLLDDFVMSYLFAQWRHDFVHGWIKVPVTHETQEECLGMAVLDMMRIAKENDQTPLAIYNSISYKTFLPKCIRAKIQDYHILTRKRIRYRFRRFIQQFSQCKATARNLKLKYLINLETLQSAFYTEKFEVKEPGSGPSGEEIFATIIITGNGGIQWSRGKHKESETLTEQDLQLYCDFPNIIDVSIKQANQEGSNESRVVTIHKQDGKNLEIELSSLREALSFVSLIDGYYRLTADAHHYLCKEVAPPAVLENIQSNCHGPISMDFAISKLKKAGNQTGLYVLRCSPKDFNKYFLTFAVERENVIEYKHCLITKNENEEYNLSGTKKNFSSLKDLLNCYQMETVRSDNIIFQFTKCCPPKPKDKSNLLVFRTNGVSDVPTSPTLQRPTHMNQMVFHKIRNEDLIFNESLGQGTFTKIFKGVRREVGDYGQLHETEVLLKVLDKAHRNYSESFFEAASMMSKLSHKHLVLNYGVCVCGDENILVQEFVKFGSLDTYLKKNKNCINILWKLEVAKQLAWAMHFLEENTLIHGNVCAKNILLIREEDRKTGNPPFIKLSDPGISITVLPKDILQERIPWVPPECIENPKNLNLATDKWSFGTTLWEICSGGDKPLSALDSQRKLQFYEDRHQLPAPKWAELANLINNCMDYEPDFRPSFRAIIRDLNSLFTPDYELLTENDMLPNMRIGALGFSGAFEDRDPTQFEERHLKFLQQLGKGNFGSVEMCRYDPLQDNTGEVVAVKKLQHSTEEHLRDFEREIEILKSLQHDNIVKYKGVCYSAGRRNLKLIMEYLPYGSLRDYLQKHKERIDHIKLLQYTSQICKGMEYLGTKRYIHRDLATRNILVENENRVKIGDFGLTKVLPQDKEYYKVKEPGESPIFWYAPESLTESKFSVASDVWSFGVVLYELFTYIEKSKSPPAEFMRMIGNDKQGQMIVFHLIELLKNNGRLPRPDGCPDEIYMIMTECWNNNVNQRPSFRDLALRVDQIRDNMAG

[5] = biological target: Fes (UniProt P07332); assay: as above
Sequence of Fes (P07332 whole entry, looked up): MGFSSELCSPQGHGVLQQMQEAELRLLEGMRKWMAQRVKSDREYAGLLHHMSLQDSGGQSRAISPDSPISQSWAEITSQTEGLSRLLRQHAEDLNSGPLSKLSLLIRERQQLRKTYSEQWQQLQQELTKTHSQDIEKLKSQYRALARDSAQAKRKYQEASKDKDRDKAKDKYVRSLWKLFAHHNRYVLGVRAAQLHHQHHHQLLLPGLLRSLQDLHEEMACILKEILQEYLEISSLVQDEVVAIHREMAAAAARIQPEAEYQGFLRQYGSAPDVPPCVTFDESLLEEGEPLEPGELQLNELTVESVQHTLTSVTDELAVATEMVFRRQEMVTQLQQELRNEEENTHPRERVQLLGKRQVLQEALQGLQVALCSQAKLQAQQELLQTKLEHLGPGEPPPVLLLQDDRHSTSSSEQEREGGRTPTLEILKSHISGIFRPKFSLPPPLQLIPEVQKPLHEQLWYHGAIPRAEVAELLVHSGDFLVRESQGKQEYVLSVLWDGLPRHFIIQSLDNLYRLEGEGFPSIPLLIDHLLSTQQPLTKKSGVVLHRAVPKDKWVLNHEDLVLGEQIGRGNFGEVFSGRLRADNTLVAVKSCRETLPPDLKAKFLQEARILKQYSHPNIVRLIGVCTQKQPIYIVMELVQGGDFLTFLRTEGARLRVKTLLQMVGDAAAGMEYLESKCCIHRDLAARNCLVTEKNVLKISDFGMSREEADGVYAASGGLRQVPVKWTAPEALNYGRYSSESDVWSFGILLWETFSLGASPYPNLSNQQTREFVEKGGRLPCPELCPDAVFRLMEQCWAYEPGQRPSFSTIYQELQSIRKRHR

[6] = biological target: Hck (UniProt P08631); assay: as above
Sequence of Hck (P08631 whole entry, looked up): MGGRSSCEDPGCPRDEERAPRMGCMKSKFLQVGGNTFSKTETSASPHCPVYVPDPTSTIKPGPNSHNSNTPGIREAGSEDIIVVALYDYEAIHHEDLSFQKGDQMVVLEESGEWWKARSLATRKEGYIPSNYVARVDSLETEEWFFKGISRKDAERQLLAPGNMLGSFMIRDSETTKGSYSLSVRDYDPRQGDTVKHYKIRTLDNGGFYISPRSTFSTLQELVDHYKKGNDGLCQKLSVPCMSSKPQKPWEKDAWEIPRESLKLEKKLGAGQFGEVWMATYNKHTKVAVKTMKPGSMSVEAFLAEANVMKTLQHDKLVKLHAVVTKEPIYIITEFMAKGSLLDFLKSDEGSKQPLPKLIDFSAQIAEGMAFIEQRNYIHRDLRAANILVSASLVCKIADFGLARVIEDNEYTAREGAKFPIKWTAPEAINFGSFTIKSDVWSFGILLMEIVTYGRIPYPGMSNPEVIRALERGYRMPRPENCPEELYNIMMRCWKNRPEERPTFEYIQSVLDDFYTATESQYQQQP

[7] = tested on: c-Abl (mouse); assay: as above
[8] = biological target: FGFR1 (UniProt P11362); assay: as above
Sequence of FGFR1 (P11362 whole entry, looked up): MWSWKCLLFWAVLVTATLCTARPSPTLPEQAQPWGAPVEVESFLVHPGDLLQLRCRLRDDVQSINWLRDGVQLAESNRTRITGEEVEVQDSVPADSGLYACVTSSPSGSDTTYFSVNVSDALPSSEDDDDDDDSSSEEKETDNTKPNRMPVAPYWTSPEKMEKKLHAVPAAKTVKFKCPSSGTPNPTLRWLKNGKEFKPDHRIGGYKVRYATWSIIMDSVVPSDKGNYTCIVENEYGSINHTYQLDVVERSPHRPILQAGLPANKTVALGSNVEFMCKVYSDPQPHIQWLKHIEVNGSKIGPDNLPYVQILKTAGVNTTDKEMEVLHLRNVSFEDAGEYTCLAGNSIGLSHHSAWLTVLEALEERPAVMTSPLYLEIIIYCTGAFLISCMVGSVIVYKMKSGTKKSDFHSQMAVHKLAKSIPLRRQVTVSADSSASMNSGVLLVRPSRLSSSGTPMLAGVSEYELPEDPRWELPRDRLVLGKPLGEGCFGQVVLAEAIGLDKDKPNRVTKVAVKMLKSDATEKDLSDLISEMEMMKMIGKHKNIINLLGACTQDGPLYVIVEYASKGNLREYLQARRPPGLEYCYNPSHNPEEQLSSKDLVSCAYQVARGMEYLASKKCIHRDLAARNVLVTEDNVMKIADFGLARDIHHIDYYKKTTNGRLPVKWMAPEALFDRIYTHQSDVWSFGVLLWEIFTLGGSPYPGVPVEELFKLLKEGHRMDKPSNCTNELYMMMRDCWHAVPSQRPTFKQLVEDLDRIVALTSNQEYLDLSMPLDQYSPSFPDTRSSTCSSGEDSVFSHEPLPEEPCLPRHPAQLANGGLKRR

[9] = biological target: EPHB2 (UniProt P29323); assay: as above
[10] = biological target: FGFR3 (UniProt P22607); assay: as above
[11] = tested on: c-Src; assay: as above
[12] = biological target: MERTK (UniProt Q12866); assay: as above
Sequence of MERTK (Q12866 whole entry, looked up): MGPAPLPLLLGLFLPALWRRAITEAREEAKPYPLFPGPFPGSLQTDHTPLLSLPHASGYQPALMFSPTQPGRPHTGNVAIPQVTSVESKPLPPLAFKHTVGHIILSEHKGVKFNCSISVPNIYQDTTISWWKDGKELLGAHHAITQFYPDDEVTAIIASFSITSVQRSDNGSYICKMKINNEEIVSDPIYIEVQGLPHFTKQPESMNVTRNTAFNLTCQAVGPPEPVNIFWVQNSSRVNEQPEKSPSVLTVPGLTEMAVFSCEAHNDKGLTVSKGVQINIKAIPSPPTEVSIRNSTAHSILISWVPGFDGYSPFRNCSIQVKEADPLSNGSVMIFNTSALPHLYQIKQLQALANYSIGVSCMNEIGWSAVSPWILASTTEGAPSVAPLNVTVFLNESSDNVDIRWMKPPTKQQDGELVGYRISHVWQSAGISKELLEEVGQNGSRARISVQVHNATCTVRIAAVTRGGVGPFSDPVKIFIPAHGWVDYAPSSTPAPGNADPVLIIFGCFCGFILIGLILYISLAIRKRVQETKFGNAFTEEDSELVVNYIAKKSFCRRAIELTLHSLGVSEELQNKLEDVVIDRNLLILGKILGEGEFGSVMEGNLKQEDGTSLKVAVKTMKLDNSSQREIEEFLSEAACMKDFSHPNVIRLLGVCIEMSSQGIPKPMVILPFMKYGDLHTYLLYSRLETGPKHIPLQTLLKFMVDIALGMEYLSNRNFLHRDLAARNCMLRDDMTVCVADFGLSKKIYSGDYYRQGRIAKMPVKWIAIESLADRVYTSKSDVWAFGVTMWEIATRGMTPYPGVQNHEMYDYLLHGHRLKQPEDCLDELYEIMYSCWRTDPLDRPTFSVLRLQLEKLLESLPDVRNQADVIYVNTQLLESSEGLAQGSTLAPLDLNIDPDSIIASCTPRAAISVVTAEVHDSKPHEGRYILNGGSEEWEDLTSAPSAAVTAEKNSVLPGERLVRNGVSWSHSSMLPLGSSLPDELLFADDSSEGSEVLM

[13] = tested on: Fer (mouse); assay: as above
[14] = biological target: SHP2-C SH2; assay: SH2 binding enrichment of the phosphorylated peptide, bacterial display (enrichment ratio); higher = better substrate or ligand; peptides without Tyr show the background
[15] = biological target: Grb2 SH2 (UniProt P62993); assay: as above
Sequence of Grb2 SH2 (P62993 whole entry, looked up): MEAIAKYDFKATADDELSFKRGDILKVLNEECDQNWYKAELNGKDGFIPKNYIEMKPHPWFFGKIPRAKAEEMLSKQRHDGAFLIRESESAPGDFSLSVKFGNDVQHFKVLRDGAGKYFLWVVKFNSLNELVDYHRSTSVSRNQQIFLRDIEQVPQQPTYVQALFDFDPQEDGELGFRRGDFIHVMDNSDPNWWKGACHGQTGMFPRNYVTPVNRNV

[16] = biological target: c-Src SH2; assay: as above
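For SH2 binding enrichment of the phosphorylated peptide, bacterial display in this document: peptide library displayed on the E. coli surface as eCPX fusions, selected cells deep-sequenced, score is each peptide's frequency after selection divided by its frequency in the input.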
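For phosphorylation enrichment, bacterial display in this document: 11-residue human phosphosite peptides and single-mutation variants displayed on the E. coli surface, counted by deep sequencing, each peptide's frequency after selection divided by its frequency in the unselected input library; frequency after pTyr selection over input frequency; kinase dosed for 20-30% of maximal phosphorylation in three min.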

Sequence of Fyn (P06241 whole entry, looked up): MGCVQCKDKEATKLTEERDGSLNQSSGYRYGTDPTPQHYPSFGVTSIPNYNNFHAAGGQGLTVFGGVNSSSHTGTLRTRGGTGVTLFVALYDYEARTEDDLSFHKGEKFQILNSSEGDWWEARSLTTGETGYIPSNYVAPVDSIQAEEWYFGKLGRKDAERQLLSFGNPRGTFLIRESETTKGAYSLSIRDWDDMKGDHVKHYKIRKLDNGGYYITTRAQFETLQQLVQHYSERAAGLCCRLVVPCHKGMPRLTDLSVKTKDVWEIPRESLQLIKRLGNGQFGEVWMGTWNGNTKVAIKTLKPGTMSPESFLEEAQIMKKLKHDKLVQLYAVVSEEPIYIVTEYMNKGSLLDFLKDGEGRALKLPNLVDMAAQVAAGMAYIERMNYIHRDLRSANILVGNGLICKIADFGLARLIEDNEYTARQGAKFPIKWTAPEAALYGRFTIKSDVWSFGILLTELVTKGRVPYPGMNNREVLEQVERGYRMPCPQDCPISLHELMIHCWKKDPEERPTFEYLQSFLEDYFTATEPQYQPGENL

| Sequence | phosphorylation enrichment [1] | phosphorylation enrichment [2] | phosphorylation enrichment [3] | phosphorylation enrichment [4] | phosphorylation enrichment [5] | phosphorylation enrichment [6] | phosphorylation enrichment [7] | phosphorylation enrichment [8] | phosphorylation enrichment [9] | phosphorylation enrichment [10] | phosphorylation enrichment [11] | phosphorylation enrichment [12] | phosphorylation enrichment [13] | SH2 binding enrichment [14] | SH2 binding enrichment [15] | SH2 binding enrichment [16] |
| --- | --- | --- | --- | --- | --- | --- | --- | --- | --- | --- | --- | --- | --- | --- | --- | --- |
| DAGTDYVGISC [FREM2_Y2061_R2066C] | 0.522 | 1.31 | 0.578 | 0.732 | 0.961 | 0.478 | 0.688 | 1.05 | 0.619 | 0.959 | 0.546 | 0.4 | 0.558 | 0.898 | 0.991 | 0.658 |
| DAKAIYDFTDT [PDK1_Y136] | 7.96 | 1.3 | 1.43 | 0.994 | 1.15 | 3.18 | 1.03 | 0.604 | 1.85 | 0.665 | 5.87 | 5.88 | 5.43 | 0.6 | 0.896 | 0.604 |
| DCVRMYELVHR [GLE1_Y135_G130D] | 0.754 | 1.21 | 7.46 | 1.09 | 1.31 | 2.57 | 1.03 | 0.594 | 3.53 | 0.831 | 1.3 | 3.03 | 7.12 | 0.746 | 0.925 | 2.56 |
| DEDEEYEYMNR [ERBB3_Y1197] | 0.523 | 1.38 | 0.587 | 1.19 | 1.23 | 0.567 | 0.668 | 0.511 | 0.712 | 0.62 | 0.54 | 0.487 | 0.556 | 0.926 | 1.02 | 0.634 |
| DEEPPYRGPFC [SASH1_Y551] | 0.437 | 0.863 | 0.509 | 0.697 | 0.895 | 0.389 | 0.673 | 0.525 | 0.396 | 0.656 | 0.493 | 0.332 | 0.434 | 1.21 | 1.06 | 0.657 |
| DEIPLYLKGGV [COX7A2_Y44] | 0.492 | 0.79 | 0.566 | 0.854 | 0.962 | 0.522 | 0.593 | 0.5 | 0.508 | 0.656 | 0.422 | 0.391 | 0.485 | 0.716 | 0.83 | 0.454 |
| DERQPYVHMNG [IGF1R_Y1346_A1347V] | 0.438 | 0.696 | 0.436 | 0.786 | 0.81 | 0.471 | 0.503 | 0.592 | 0.5 | 0.627 | 0.484 | 0.428 | 0.446 | 0.704 | 0.729 | 0.705 |
| DFAIVYGTIIL [GPR179_Y460_G455D] | 0.692 | 1.52 | 0.732 | 1.16 | 1.51 | 0.665 | 0.846 | 0.565 | 0.777 | 1.1 | 0.483 | 0.402 | 0.727 | 0.584 | 0.591 | 0.343 |
| DFFDLYGGQKF [PTPN11_Y66_E69Q_YF] | 7.17 | 1.13 | 0.464 | 0.931 | 0.94 | 8.96 | 0.866 | 0.609 | 0.662 | 0.715 | 6.89 | 0.567 | 0.82 | 0.541 | 0.883 | 0.735 |
| DFKIIYIAPMR [SNRNP200_Y540] | 0.522 | 1.21 | 0.586 | 1.18 | 1.22 | 0.556 | 4.59 | 0.449 | 0.486 | 0.616 | 0.572 | 0.437 | 0.447 | 1.32 | 1.46 | 0.759 |
| DGLALYTGSAL [COL6A3_Y524_S521L] | 0.614 | 1.09 | 0.968 | 0.901 | 1.17 | 0.901 | 0.749 | 0.479 | 0.936 | 0.723 | 0.635 | 0.55 | 0.758 | 0.46 | 0.695 | 0.36 |
| DGQVNYEELVQ [CALM1_Y139_F142L] | 0.704 | 1.47 | 1.04 | 1.43 | 1.25 | 0.594 | 0.781 | 0.819 | 0.826 | 0.735 | 0.614 | 0.659 | 0.639 | 0.733 | 0.835 | 0.745 |
| DHAGMYGLGDR [MAPT_Y18_T17M] | 0.523 | 0.556 | 0.348 | 0.45 | 0.558 | 0.471 | 0.411 | 0.391 | 0.541 | 0.393 | 0.454 | 0.371 | 0.388 | 0.472 | 0.791 | 0.44 |
| DHCNQYEQQKM [CHD7_Y75_Y72C] | 0.534 | 0.842 | 0.545 | 0.699 | 0.823 | 0.499 | 0.661 | 0.424 | 0.714 | 0.682 | 0.541 | 0.443 | 0.499 | 0.879 | 0.971 | 0.825 |
| DISEPYKVYRI [IRF8_Y107] | 0.445 | 0.911 | 0.537 | 0.78 | 0.88 | 1.34 | 0.62 | 0.481 | 0.517 | 0.549 | 0.622 | 0.487 | 0.497 | 0.795 | 0.901 | 0.479 |
| DKATEYIQFVR [MAX_Y70_M74V_YF] | 0.442 | 0.74 | 0.503 | 0.55 | 0.705 | 0.636 | 0.574 | 0.519 | 0.53 | 0.551 | 0.556 | 0.41 | 0.465 | 0.73 | 0.789 | 0.459 |
| DLVHPYVHKIL [SF3B1_Y570_R568H] | 0.495 | 0.717 | 0.468 | 1.03 | 0.841 | 0.432 | 0.655 | 0.457 | 0.51 | 0.567 | 0.402 | 0.435 | 0.497 | 0.983 | 0.937 | 0.522 |

| Sequence | phosphorylation enrichment [1] | phosphorylation enrichment [2] | phosphorylation enrichment [3] | phosphorylation enrichment [4] | phosphorylation enrichment [5] | phosphorylation enrichment [6] | phosphorylation enrichment [7] | phosphorylation enrichment [8] | phosphorylation enrichment [9] | phosphorylation enrichment [10] | phosphorylation enrichment [11] | phosphorylation enrichment [12] | phosphorylation enrichment [13] | SH2 binding enrichment [14] | SH2 binding enrichment [15] | SH2 binding enrichment [16] |
| --- | --- | --- | --- | --- | --- | --- | --- | --- | --- | --- | --- | --- | --- | --- | --- | --- |
| DMDATYRPMYS [JUP_Y701] | 0.563 | 0.678 | 0.441 | 0.65 | 0.768 | 0.677 | 0.656 | 0.544 | 0.525 | 0.63 | 0.568 | 0.407 | 0.463 | 0.521 | 0.747 | 0.513 |
| DNQFAYLKAII [HNF4A_Y288_E285Q_YF] | 0.396 | 1.16 | 0.43 | 1.02 | 1.33 | 0.393 | 0.711 | 0.473 | 0.595 | 0.702 | 0.372 | 0.369 | 0.592 | 0.62 | 0.782 | 0.353 |
| DPEATYTTSGG [EPHA2_Y772] | 0.523 | 1.22 | 0.533 | 1.09 | 1.19 | 0.591 | 0.943 | 0.502 | 0.57 | 0.754 | 0.789 | 0.418 | 0.502 | 0.528 | 0.671 | 0.435 |
| DRIVNYSRASI [ATP7A_Y1459] | 0.374 | 0.538 | 0.432 | 0.48 | 0.589 | 0.405 | 0.585 | 0.423 | 0.4 | 0.426 | 0.37 | 0.383 | 0.41 | 0.88 | 0.768 | 0.498 |
| DRLASNLDKVR [KRT10_Y160_Y160N] | 0.382 | 0.556 | 0.326 | 0.488 | 0.547 | 0.33 | 0.481 | 0.491 | 0.307 | 0.348 | 0.391 | 0.394 | 0.339 | 0.917 | 0.883 | 0.565 |
| DRLASYPDKVR [KRT14_Y129_L130P] | 0.371 | 0.508 | 0.354 | 0.508 | 0.516 | 0.387 | 0.482 | 0.417 | 0.356 | 0.391 | 0.372 | 0.383 | 0.373 | 0.587 | 0.901 | 0.461 |
| DRLAVYIDRVS [LMNA_Y45_R50S] | 0.428 | 0.881 | 0.472 | 0.725 | 0.953 | 0.503 | 0.351 | 0.463 | 0.5 | 0.638 | 0.311 | 0.33 | 0.397 | 0.589 | 0.807 | 0.58 |
| DRPASYLEKVR [KRT13_Y118_L115P] | 0.299 | 0.438 | 0.307 | 0.43 | 0.605 | 0.284 | 0.441 | 0.3 | 0.247 | 0.404 | 0.362 | 0.342 | 0.276 | 1.03 | 1.08 | 0.579 |
| DSILVYQGKEQ [USH2A_Y1909] | 0.433 | 0.717 | 0.451 | 0.734 | 0.761 | 0.621 | 0.536 | 0.434 | 0.43 | 0.533 | 0.515 | 0.333 | 0.414 | 0.595 | 0.707 | 0.493 |
| DSKIRYLSADS [TTF1_Y476_E473K] | 0.389 | 0.503 | 0.465 | 0.611 | 0.663 | 0.434 | 0.508 | 0.457 | 0.607 | 0.546 | 0.527 | 0.435 | 0.368 | 0.682 | 1.11 | 0.426 |
| DVELLYPVKEK [EPHX1_Y283] | 0.404 | 0.968 | 0.445 | 0.971 | 1.05 | 0.422 | 0.648 | 0.394 | 0.513 | 0.558 | 0.452 | 0.36 | 0.432 | 0.487 | 0.73 | 0.42 |
| DVFLKYLNFAT [PDE6B_Y212] | 0.557 | 1.23 | 0.855 | 1.56 | 1.29 | 0.544 | 1.46 | 0.535 | 0.44 | 0.826 | 0.597 | 0.647 | 0.509 | 1.5 | 1.82 | 0.935 |
| DVSVVCSEVKT [FCRL4_Y493_Y493C] | 0.681 | 1.15 | 0.617 | 0.995 | 1.3 | 0.635 | 0.867 | 0.625 | 0.614 | 0.838 | 0.594 | 0.456 | 0.537 | 0.581 | 1.1 | 0.594 |
| DVVKDCAFVHM [RBM14_Y114_Y114C] | 0.488 | 0.899 | 0.582 | 0.71 | 0.993 | 0.486 | 0.645 | 0.573 | 0.535 | 0.623 | 0.384 | 0.401 | 0.498 | 0.811 | 0.971 | 0.523 |
| DYYDLYGGEKL [PTPN11_Y66_F71L] | 5.27 | 3.2 | 7.36 | 3.12 | 1.5 | 5.89 | 0.871 | 16.6 | 8.09 | 14.1 | 5.5 | 3.9 | 1.32 | 0.935 | 0.812 | 0.709 |
| EACRSYSHVVL [CHST6_Y168] | 0.611 | 0.808 | 0.454 | 0.602 | 0.711 | 0.548 | 0.881 | 0.533 | 0.498 | 0.701 | 0.538 | 0.463 | 0.824 | 2.2 | 0.958 | 2.24 |
